From paper PMC2872155

What was measured:
[1] = system: VP35 IID (Zaire ebolavirus); experiment: ITC; conditions: not given in the material (Methods absent)
[2] = system: VP35 IID (Zaire ebolavirus); experiment: NMR; conditions: 5'ppp; not given in the material (Methods absent)
[3] = system: VP35 IID (Zaire ebolavirus); experiment: NMR competition; conditions: 5'ppp; not given in the material (Methods absent)

| Substance | Kd [1] [nM] | binding signal (relative HSQC peak intensity) [2] | binding signal (relative HSQC peak intensity) [3] |
| --- | --- | --- | --- |
| 8 bp dsRNA | 500 | – | – |
| IVT-8 bp dsRNA | – | 0.36 | 0.42 |
